{
  "source": "the nanobody polyreactivity screen of Harvey et al. (2022)",
  "data": [
    {"assay": "yeast display, Sf9 membrane polyspecificity reagent, FACS + sequencing; frameworks hold sequencing errors", "outline": "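Sorting gates, low and high (top ~1%), were placed on anti-HA fluorescence to track expression and on streptavidin fluorescence to track reagent binding. A clone's polyreactivity label is taken from the gate it came out of. The reagent was 10% biotinylated, detergent-solubilized Sf9 membrane, applied for 1 hour at 4 °C to galactose-induced yeast display cells.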", "values": [
      {"sequence": "QVQLQESDGGLVQAGGSLRLSCAASGSISPQYYMGWYRQAPGKEREYVAISKGTTTYSADSVKGRLTISRVNAKNTVYLQMNSLKPEDTAVYCCAAGRWLQKVHAYWDQGTQVTVSS", "polyreactivity (PSR sort gate)": "low polyreactivity"},
      {"sequence": "QVQLQESDGGLVQAGGSLRLTCAASGSISPQYYMGWYRQAPGKEREFVAISKGTTTYYADSVKGRLTISRVNANNTVYLQMNSLKPEDTAVYCCAAGRWLQKVHAYWDQGTQVTVSS", "polyreactivity (PSR sort gate)": "low polyreactivity"},
      {"sequence": "QVQLQESGAGLVQAGGDLRLSCAASGNIFRDYIMGWYRQAPGKEREFVAGIDRGANTNYADSVKGRFTISRDNAKNTVYLQMNSLKPEDTAVYYCAVHTAIVPDFIYWGQGTQVTVSS", "polyreactivity (PSR sort gate)": "low polyreactivity"},
      {"sequence": "QVQLQESGDGLVQAGGSLRLSSAASGTIFSDYGMGGYRQAPGKERELLAGISDGCNTNYTDSVKGRFTISRDNAHRVSADEQPETGGYRGVLLGGSERWLIFYVYWGQGTQVTVSC", "polyreactivity (PSR sort gate)": "high polyreactivity"},
      {"sequence": "QVQLQESGDGLVQAGGSLRLSSAASGTIFSDYGMGWYRQAPGKERELLAGISDGCNTNYTDSVKGRFTISRDNAHRVSADDQPETGGYRGVLLRGSERWLLFYVYWGLGTQVTVSS", "polyreactivity (PSR sort gate)": "high polyreactivity"},
      {"sequence": "QVQLQESGDGLVQAGGSLRLSSGASGTIVSDYGMGGYRQAPGKERELLAGISDGCNTNYTDSVKGRFTISRDNAHRVSADEQPETGGYLGVLLRGTERWLHFYVYWGQGTQVTVSS", "polyreactivity (PSR sort gate)": "high polyreactivity"},
      {"sequence": "QVQLQESGDGLVQALGSLRLSCAASGYISGYYYMGWYRQAPGKERELVAGIDAFGSSTNYADCVKGRFTISRDNAKNTVYLQMNSPKPVDTAVYYCAAEYDDWDYHWYWGEGTQVTVSS", "polyreactivity (PSR sort gate)": "low polyreactivity"},
      {"sequence": "QVQLQESGDGLVQAVGSLRLSCAARGYISGYYYMGWYRQAPGKERELVAGIDAFGSSTNYADCVKGRFTISRDNAKNTVYLQMNSLKPEDTAVYYCAARPDGDRLFSYWGQGTQVTVSS", "polyreactivity (PSR sort gate)": "low polyreactivity"},
      {"sequence": "QVQLQESGGCLVQAGGSLRLSCAASGTNLYSLGMGWSRQAPGKRREFVASITWGTTTNYAESENGRFTISRDNAKKTVYPQRNSLKPEDTAVYYCAAPPFGDSSYHYWGQATQVTVSS", "polyreactivity (PSR sort gate)": "low polyreactivity"},
      {"sequence": "QVQLQESGGDLEQAGGSLRLSCTASGTISDVRVMGWYRQAPGKERELVATISYVTITYYADSVKGRFTISRDSEKHRVSADDEPETGRYGGVLLRYYWGLGTQVTVSS", "polyreactivity (PSR sort gate)": "low polyreactivity"},
      {"sequence": "QVQLQESGGGLEQAGGSLRKSCAANGNIFDADIVGRYRQAPGKKPELVDSITDGGITNYADSVKGRFTISRDNAKYTVYLQMNIQNPEDTAVYYCASIAYPDIPTFFDYYSYFFYWGQGTQVTVSS", "polyreactivity (PSR sort gate)": "high polyreactivity"},
      {"sequence": "QVQLQESGGGLEQAGGSLRLSCAASGNISSWYPMGWYRQAPGKEREFVATIAPVATTNYADSVKGRFTISRDYAKITVYLQMNSLKPEDTAVNYCAAGPDNNDFYSYWGQGTQVTVSS", "polyreactivity (PSR sort gate)": "low polyreactivity"},
      {"sequence": "QVQLQESGGGLEQAGGSLRPSCAASGSISDGVPMGWYRQAPGEERELVATTVLGATTNYADSVKGRFTISRGNAKNTVYLQMNSLKPEETAVYYCAAPLRYDKGFSYWGQGTQVTVSS", "polyreactivity (PSR sort gate)": "low polyreactivity"},
      {"sequence": "QVQLQESGGGLMQAGGNLRLSCAASGYISTHYDMDWYRQAPGKERELVARIDDGAITNYADSVKGRFTISRDNAKKTVYLQMNSLKPEDTAVYYCAVYYGDEYYHDYWGQGTQVTVSS", "polyreactivity (PSR sort gate)": "low polyreactivity"},
      {"sequence": "QVQLQESGGGLMQAGGSQRLSCAARGSISYYSDMGWYLQAPGKEREFVAGIGYGTTTNYADSVKGRFTTSRDNAKNTVYLQMISMKPEDTAVYYCAAYQGNGYEFYYWGQGTQVTVRS", "polyreactivity (PSR sort gate)": "low polyreactivity"},
      {"sequence": "QVQLQESGGGLMQAGGSQRLSCAASGSISYYSDMGWYRQAPGKEREFVAGIGYGTTTNYADSVKGRFTTSRDNAKNTVYLQMISMKPEDSAVYYCAAYQGNGYEFYYWGQGTQVTVRS", "polyreactivity (PSR sort gate)": "low polyreactivity"},
      {"sequence": "QVQLQESGGGLVKAGGSLRLSCAASGNISNHNDMGWYRQAPGKESEFVAGITAGGITNYADSVKGRFTISRDNAKNTVYLQMNSLKPEDTAVYYCAAYPDYAKSYGYWGQGTQATVSS", "polyreactivity (PSR sort gate)": "low polyreactivity"},
      {"sequence": "QVQLQESGGGLVLAGGSLRLSCSASGNISVYGSMGWYRQAPGKEREFVATIAPGTNTNYADSVKDRFTISRDNAKNTVYLQMNSLKPEDTAVYYCAARHPSSAYWVGYYWYDYWGQGTQVTVSS", "polyreactivity (PSR sort gate)": "low polyreactivity"},
      {"sequence": "QVQLQESGGGLVLAGGSLRLSCSASGNISVYGSMGWYRQAPGKEREFVATIDPGTNTNYADSMKDRFTISRDNAKNTVYLQMNSLKPEDTAVYYCAVEAGSDWPYRYWGQGTQVTVSS", "polyreactivity (PSR sort gate)": "low polyreactivity"},
      {"sequence": "QVQLQESGGGLVQACGSLRLSCAASGYISHADEMGWYRQAPGKEHELVASISNGGSTNYADSVKGRFTMSRDNAKNTVYLQMNSLKSEDTAVYYCAAWTGQVDIHYYWGQGTKVTVSS", "polyreactivity (PSR sort gate)": "low polyreactivity"},
      {"sequence": "QVQLQESGGGLVQAGDSQRLSCAASGNSFRFTHMGWYRQAPGKERELVAASNAGSTTYYADSVKGRFTISRDNAKNTVYLQMKSLKPEDTAVYYCAVYYLGSGTFGYWGQGAQVTVSS", "polyreactivity (PSR sort gate)": "high polyreactivity"},
      {"sequence": "QVQLQESGGGLVQAGGCLRLSCAASGSIFTYAVMGWYRQAHGKEHELVATIDTGSSTYYADSVKGRITISRDNAKNTLYLQMNSLKPEDTAVYYCAVNTYCRVRYRYWGQGTQVTVSS", "polyreactivity (PSR sort gate)": "high polyreactivity"},
      {"sequence": "QVQLQESGGGLVQAGGDLRLSCEASGNIFRDYIMGWYRQAPGKEREFVAGIDRGANTNYADSVKGRFTISRDNAKNTVYLQMNSLQPEDTAVYYCAVHTAIVPDFIYWGQGTQVTVRS", "polyreactivity (PSR sort gate)": "low polyreactivity"},
      {"sequence": "QVQLQESGGGLVQAGGSLGCAASCNISTRSEMGWYRQAPGKEREFVATINSGGITNYADSLKGRFTISRDNAKNTVYLRKNSLKAEVTAVYYRAVYGYFSYPYDYWGQGTQVSVSS", "polyreactivity (PSR sort gate)": "low polyreactivity"},
      {"sequence": "QVQLQESGGGLVQAGGSLGCAASGNISTRSEMGWYRQSPGKEREFVATINSGGITNYADSVKGRFTISRDNAKNTVYLRMNSLKPEDTAVYYRAVYGYFSDPYDYWGQGTQVTVSS", "polyreactivity (PSR sort gate)": "low polyreactivity"},
      {"sequence": "QVQLQESGGGLVQAGGSLLLSCAASGSISGPHVMGWYRQAPGKEREFVAAINVGANTYYADNVKGRFTISRDNAKNTVYLQMNSLKPEDTAVYYCAAVYYGDIGHEYWGQGTQVTVSC", "polyreactivity (PSR sort gate)": "low polyreactivity"},
      {"sequence": "QVQLQESGGGLVQAGGSLLSCAASGTISYYREMGWYRQAPGKERELVAGIGVGTITYYADSVKGRFTISRDNAKHTVYLQMNSLKPEDTAVYYCAAAYQEYDYHYYYWGQGTQVTVSS", "polyreactivity (PSR sort gate)": "low polyreactivity"},
      {"sequence": "QVQLQESGGGLVQAGGSLPLSCAASGTISVHATMGWYRQATGKERELVAGITDGANTYYADSVKGRFTISRDNSQNTVYLQMNSLTPEDTAVYYCAAYYGTVVHFTYWGQGTQVTVSS", "polyreactivity (PSR sort gate)": "low polyreactivity"},
      {"sequence": "QVQLQESGGGLVQAGGSLRCAASGNISTRSEMGWYRQAPGKEREFVATINSGGITNYADSVKGRFTISRDNAKNTVYLRMNCLKPEDTAVYYRAVYGYFSDPYDYWGQGTQVTVSS", "polyreactivity (PSR sort gate)": "low polyreactivity"},
      {"sequence": "QVQLQESGGGLVQAGGSLRLICAASGTIFRFRYMGWHRQAPGKERELVAGINGGTTTYYADSVIGRFTISRDNAKNTVYVQMNSLKPDDTAVYNCAAGASRLTYYDYWGHGTQVTVSS", "polyreactivity (PSR sort gate)": "low polyreactivity"},
      {"sequence": "QVQLQESGGGLVQAGGSLRLSCAACGNIFKYTNMGSYRQAPGKERELVATISDGASTNYADSVKGRFTISRDNAINTVYLQMNSLKPEDTAVYYCNAEGYVRFNYWGQCTQVTVSS", "polyreactivity (PSR sort gate)": "high polyreactivity"},
      {"sequence": "QVQLQESGGGLVQAGGSLRLSCAASCTISQEDWMGWYRQAPGKELEFVAAIGLGSNTNYADSLKGRFTISRDNAKNTVYLQMNSLKPEDTAVYYCAVSVWQYSDHVYRGQGTQVTVSS", "polyreactivity (PSR sort gate)": "low polyreactivity"},
      {"sequence": "QVQLQESGGGLVQAGGSLRLSCAASGCISVYTPMGWYRQAPGKERVLVAGINICANTYYADSVKGRFTISRDNAKNTLYLQMNSLKPEDTAVYYCAARRRPGGRYKSRVWYDYWGQGTQVTVSS", "polyreactivity (PSR sort gate)": "high polyreactivity"},
      {"sequence": "QVQLQESGGGLVQAGGSLRLSCAASGIIVDADIMGWYRQAPGQERDLVASITDGGRTNYADSVKGRFTISRDNAKNTVYLQMNSLKPEDTAVYYCAAIAYPDIPTYFDYDSEYFYCGQGTQVTVSS", "polyreactivity (PSR sort gate)": "low polyreactivity"},
      {"sequence": "QVQLQESGGGLVQAGGSLRLSCAASGNIFLSIFMGWYRQAPGKEREFVAGIGSGTNTNYADSVKGRFTISRDNAKNTVYLQMNSLKAEDTAGYYSAAGRYGLYYHGYWGQGTQVTVSS", "polyreactivity (PSR sort gate)": "high polyreactivity"},
      {"sequence": "QVQLQESGGGLVQAGGSLRLSCAASGNISVTGIMGWYRQAPGKERELVASIGIGGTTYYADSVNGRFSISRDNAKNTVYLQMISLKPEDTALYYLAARYLYYAYSYWGQGTQVTVSS", "polyreactivity (PSR sort gate)": "low polyreactivity"},
      {"sequence": "QVQLQESGGGLVQAGGSLRLSCAASGNISYRTHMGWYRQAPGKERELVASIGGGTTNYADSVKGRFTISRDNAKNTVYLQMNSLKPEDTAVYYCAVVGTTQFRHRYWGQGTQVTASS", "polyreactivity (PSR sort gate)": "high polyreactivity"},
      {"sequence": "QVQLQESGGGLVQAGGSLRLSCAASGNIVDADIMGWYRQAPGKEREIVASITDGGSTNYADSLKGRFTISRDNAKNTVYQQMNSLIPEDTAVYYCAAIAYPDIPPYFDYDSDYFDWGQGTQETVSS", "polyreactivity (PSR sort gate)": "high polyreactivity"},
      {"sequence": "QVQLQESGGGLVQAGGSLRLSCAASGNIVDADIMGWYRQAPGKERELVASITDGGSTNYADSVKGRFTISRDNAKNTVYLQMNSLKPVDTAVYNCAAIAYPDIPTYFDYDSEYFYWGQGTQVTVSS", "polyreactivity (PSR sort gate)": "low polyreactivity"},
      {"sequence": "QVQLQESGGGLVQAGGSLRLSCAASGPISRRSTMGWYRQAPGKERELVTAITRGTNTNYADSVKGRFTISRDNAKNTESLQMNSLKPEDTAVYYGAAYGVLKPSRGDAVFHRYWGQGTQVTVSS", "polyreactivity (PSR sort gate)": "low polyreactivity"},
      {"sequence": "QVQLQESGGGLVQAGGSLRLSCAASGPISRRSTMGWYRQAPGKERELVTAITRGTNTNYADSVKGRFTISRDNAKNTEYLQMNSLKPEDTAVFYCAAYGVLKPSRGDAVFHRYWGQGTQVTVSS", "polyreactivity (PSR sort gate)": "low polyreactivity"}
    ]}
  ]
}
